The results in this text go back to patent US20250388672A1 (Ablynx, published 2025).

In test [1] the target is T1, human CD20 (human, UniProt P11836 1-297).
T1 sequence (looked up): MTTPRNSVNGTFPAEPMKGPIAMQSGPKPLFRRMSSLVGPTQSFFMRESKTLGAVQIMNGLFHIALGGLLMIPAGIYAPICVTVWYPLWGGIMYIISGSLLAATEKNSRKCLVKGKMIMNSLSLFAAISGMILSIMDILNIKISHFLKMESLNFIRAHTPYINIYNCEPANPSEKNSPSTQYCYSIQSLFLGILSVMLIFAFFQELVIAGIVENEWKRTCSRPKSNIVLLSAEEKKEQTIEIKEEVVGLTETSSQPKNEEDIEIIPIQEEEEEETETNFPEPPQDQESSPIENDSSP
Put plainly: cell-based or functional assay.

Test [2] has as its target T1, human CD20. The test is described as follows: flow cytometry on human CD20 positive Ramos cells. Background: Flow cytometry measures light scatter and fluorescence of single cells or particles in a stream.
In test [3] the target is T1, human CD20. Put plainly: cell-based or functional assay. The source holds these as a separate data set.
Test [4] deals with human HER2 (human, UniProt P04626 23-1255). The test is described as follows: cell-based or functional assay.
Test [5] has as its target T2, human TCR/CD3 complex on purified primary human T cells (human).
T2 construct: Natural complex on T cells isolated from buffy coats of healthy donors; also called hu T cells; purified primary T cells
Put plainly: flow cytometry on primary human T cells.

The target of test [6] is T1, human CD20. The test is described as follows: cell-based or functional assay. This is another data set of the same source.
The target in test [7] is T1, human CD20. Put plainly: cell-based or functional assay. The source holds these as a separate data set.

T2 sequence (delta, as listed by the source limits assumed, chain 1 of 4): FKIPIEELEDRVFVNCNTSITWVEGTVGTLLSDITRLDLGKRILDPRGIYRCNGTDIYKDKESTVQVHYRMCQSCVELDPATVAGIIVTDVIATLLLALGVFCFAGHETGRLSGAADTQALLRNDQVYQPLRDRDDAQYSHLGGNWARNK
T2 sequence (gamma, as listed by the source limits assumed, chain 2 of 4): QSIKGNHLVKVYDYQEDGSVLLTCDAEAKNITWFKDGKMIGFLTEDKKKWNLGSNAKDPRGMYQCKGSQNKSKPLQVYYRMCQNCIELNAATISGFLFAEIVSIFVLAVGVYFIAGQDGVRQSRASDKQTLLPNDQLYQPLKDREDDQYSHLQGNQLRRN
T2 sequence (epsilon, as listed by the source limits assumed, chain 3 of 4): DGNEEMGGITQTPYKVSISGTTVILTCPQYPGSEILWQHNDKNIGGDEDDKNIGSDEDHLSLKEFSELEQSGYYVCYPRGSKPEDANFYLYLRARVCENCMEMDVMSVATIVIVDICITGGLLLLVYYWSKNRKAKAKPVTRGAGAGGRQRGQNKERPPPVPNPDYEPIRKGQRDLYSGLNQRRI
T2 sequence (zeta, as listed by the source limits assumed, chain 4 of 4): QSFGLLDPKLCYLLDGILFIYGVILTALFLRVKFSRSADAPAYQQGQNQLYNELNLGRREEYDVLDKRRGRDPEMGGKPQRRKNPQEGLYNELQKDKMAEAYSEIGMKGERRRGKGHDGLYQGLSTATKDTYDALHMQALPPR

B1: T017000061 (bispecific antibody)
chain: EVQLVESGGGLVQPGGSLRLSCTFSGGTFSSYTMGWFRQAPGKEREFVAEVRWGGVTTYSNSLKDRFSISEDSVKNAVYLQMNSLKPEDTAVYYCAAVRQMYMTVVPDYWGQGTLVTVSSGGGGSGGGGSGGGGSGGGGSGGGGSGGGGSGGGGSEVQLVESGGGLVQGGGSLSLSCAASGRTFSSYAMAWFRQPPGKEREFVASISWSGENTNYRNSVKGRFTISRDNAKNTVYLQMNSLKPEDTAVYYCAAKIAKTYPDNWYWTKSNNYNYWGQGTLVTVSSGAADYKDHDGDYKDHDIDYKDDDDKGAAHHHHHH
B1: in test [1], the “% lysis (% dead cells at 500 nM Nanobody minus no Nanobody control), Ramos killing assay, E:T 10:1” value was found to be 13% and the “Average IC50 (M), flow cytometry based primary human T cell mediated Ramos killing assay, E:T 10:1” value (shortened to “Average IC50 (M) … E:T 10:1”) was 2.9e-08 M.

B2: T017000057 (bispecific antibody)
chain: EVQLVESGGGLVQPGGSLRLSCTFSGGTFSSYTMGWFRQAPGKEREFVAEVRWGGVTTYSNSLKDRFSISEDSVKNAVYLQMNSLKPEDTAVYYCAAVRQMYMTVVPDYWGQGTLVTVSSGGGGSGGGGSGGGGSGGGGSGGGGSGGGGSGGGGSEVQLVESGGGLVQAGGSLRLSCAASGRSFNMNPLGWFRQSPGKEREFVAAHRWSDGNTYYVDSVKGRFTISRDNAKNTVYLQMNSLKSEDTAVYYCAAGRPWSAFRSPGEYVYWGQGTLVTVSSGAADYKDHDGDYKDHDIDYKDDDDKGAAHHHHHH
As for B2, in test [1], the “% lysis (% dead cells at 500 nM Nanobody minus no Nanobody control), Ramos killing assay, E:T 10:1” value was 3% and the “Average IC50 (M) … E:T 10:1” value stood at 1.4e-09 M.

B3: T017000045 (bispecific antibody)
chain: EVQLVESGGGSVQAGGSLRLSCAASGRTFSTNPMGWFRQVPGKERELIAAVRWADGNTFYADSVKGRFTISRDNAKKTVYLQMNSLKSEDTATYYCAAGRPWSAYHSPAEYVHWGQGTLVTVSSGGGGSGGGGSGGGGSGGGGSGGGGSGGGGSGGGGSEVQLVESGGGLVQPGGSLRLSCTFSGGTFSSYTMGWFRQAPGKEREFVAEVRWGGVTTYSNSLKDRFSISEDSVKNAVYLQMNSLKPEDTAVYYCAAVRQMYMTVVPDYWGQGTLVTVSSGAADYKDHDGDYKDHDIDYKDDDDKGAAHHHHHH
Regarding B3, the “% lysis (% dead cells at 500 nM Nanobody minus no Nanobody control), Ramos killing assay, E:T 10:1” value in test [1] stood at 0%.

B4: T017000021 (bispecific antibody)
chain: EVQLVESGGGSVQAGGSLRLSCAASGRTFSTNPMGWFRQVPGKERELIAAVRWADGNTFYADSVKGRFTISRDNAKKTVYLQMNSLKSEDTATYYCAAGRPWSAYHSPAEYVHWGQGTLVTVSSGGGGSGGGGSGGGGSGGGGSGGGGSGGGGSGGGGSEVQLVESGGGLVQPGGSLRLSCTFSGGTFSSYTMGWFRQAPGKEREFVAEVRWGGVTTYSNSLKDRFSISEDSVKNAVYLQMNSLKPEDTAVYYCAAVRQMYMTVVPDYWGQGTLVTVSSGAADYKDHDGDYKDHDIDYKDDDDKGAAHHHHHH
notes: Bispecific Nanobody construct with tags, expressed in Pichia; also called T0170033G03-35GS-20CD019C07-FLAG3-HIS6; CD3xCD20 (cluster C)
The EC50 is the concentration needed to bring the measured effect to its halfway point. A low value points to a more potent agent. Turning to B4, it took 4.7 nM to reach a half-maximal effect in test [2] (EC50). In addition, the “Average IC50 (M), xCELLigence based human T cell mediated CHO-K1 CD20 killing assay, E:T 30:1, 44 h” value (shortened to “Average IC50 (M) … 44 h”) in test [3] was found to be 1.52e-10 M.

B5: T017000100 (bispecific antibody)
chain: EVQLVESGGGPVQAGGSLRLSCAASGRTYRGYSMGWFRQAPGKEREFVAAIVWSGGNTYYEDSVKGRFTISRDNAKNTMYLQMTSLKPEDSATYYCAAKIRPYIFKIAGQYDYWGQGTLVTVSSGGGGSGGGGSGGGGSGGGGSGGGGSGGGGSGGGGSEVQLVESGGGLVQAGGSLRLSCAASGITFSINTMGWYRQAPGKQRELVALISSIGDTYYADSVKGRFTISRDNAKNTVYLQMNSLKPEDTAVYYCKRFRTAAQGTDYWGQGTLVTVSSGAADYKDHDGDYKDHDIDYKDDDDKGAAHHHHHH
With B5, in test [4], the “IC50 (M), xCELLigence based cytotoxicity (readout 18 h), MCF-7, E/T 15:1” value was 6.9e-11 M and the “IC50 (M), xCELLigence based cytotoxicity (readout 18 h), SKBR3, E/T 15:1” value was 9.5e-12 M.

B6: T017000040 (bispecific antibody)
chain: EVQLVESGGGLVQPGGSLRLSCAASGDIYKSFDMGWYRQAPGKQRDLVAVIGSRGNNRGRTNYADSVKGRFTISRDGTGNTVYLLMNKLRPEDTAIYYCNTAPLVAGRPWGRGTLVTVSSGGGGSGGGGSGGGGSGGGGSGGGGSGGGGSGGGGSEVQLVESGGGLVQPGGSLRLSCTFSGGTFSSYTMGWFRQAPGKEREFVAEVRWGGVTTYSNSLKDRFSISEDSVKNAVYLQMNSLKPEDTAVYYCAAVRQMYMTVVPDYWGQGTLVTVSSGAADYKDHDGDYKDHDIDYKDDDDKGAAHHHHHH
notes: Bispecific Nanobody construct with tags, expressed in Pichia; also called T0170060E11-35GS-20CD019C07-FLAG3-HIS6; CD3xCD20 (cluster B)
Regarding B6, in test [1], the “% lysis (% dead cells at 500 nM Nanobody minus no Nanobody control), Ramos killing assay, E:T 10:1” value worked out at 29% and the “Average IC50 (M) … E:T 10:1” value was 6.8e-09 M. In addition, the midpoint of the response in test [2], the EC50, lay at 32 nM. In addition, the “Average IC50 (M) … 44 h” value in test [3] is 4.89e-10 M.

B7: T017000056 (bispecific antibody)
chain: EVQLVESGGGLVQPGGSLRLSCTFSGGTFSSYTMGWFRQAPGKEREFVAEVRWGGVTTYSNSLKDRFSISEDSVKNAVYLQMNSLKPEDTAVYYCAAVRQMYMTVVPDYWGQGTLVTVSSGGGGSGGGGSGGGGSGGGGSGGGGSGGGGSGGGGSEVQLVESGGGAVQPGGSLRLSCAASGIRISRNMMGWFRQAPGKQRDLVARITPGGDTYYVDSVKGRFSISKDNAKNTVYLQMNSLKPEDTAVYYCNSYSTLGSWGQGTLVTVSSGAADYKDHDGDYKDHDIDYKDDDDKGAAHHHHHH
On to B7, for which, in test [1], the “% lysis (% dead cells at 500 nM Nanobody minus no Nanobody control), Ramos killing assay, E:T 10:1” value is 4% and the “Average IC50 (M) … E:T 10:1” value was 1.5e-08 M.

B8: T017000016 (bispecific antibody)
chain: EVQLVESGGGLVQPGGSLRLSCTFSGGTFSSYTMGWFRQAPGKEREFVAEVRWGGVTTYSNSLKDRFSISEDSVKNAVYLQMNSLKPEDTAVYYCAAVRQMYMTVVPDYWGQGTLVTVSSGGGGSGGGGSGGGGSGGGGSGGGGSGGGGSGGGGSEVQLVESGGGSVQAGGSLRLSCAASGRTFSTNPMGWFRQVPGKERELIAAVRWADGNTFYADSVKGRFTISRDNAKKTVYLQMNSLKSEDTATYYCAAGRPWSAYHSPAEYVHWGQGTLVTVSSGAADYKDHDGDYKDHDIDYKDDDDKGAAHHHHHH
notes: Bispecific Nanobody construct with tags, expressed in Pichia; also called 20CD019C07-35GS-T0170033G03-FLAG3-HIS6; CD20xCD3 (cluster C)
Regarding B8, in test [1], the “% lysis (% dead cells at 500 nM Nanobody minus no Nanobody control), Ramos killing assay, E:T 10:1” value amounted to 4% and the “Average IC50 (M) … E:T 10:1” value worked out at 9.2e-09 M. For the same molecule, a half-maximal effect in test [2] (EC50) was put at 1.5 nM. For the same molecule, the “Average IC50 (M) … 44 h” value in test [3] was determined as 6.81e-12 M.

B9: T017000101 (bispecific antibody)
chain: EVQLVESGGGLVQAGGSLRLSCAASGITFSINTMGWYRQAPGKQRELVALISSIGDTYYADSVKGRFTISRDNAKNTVYLQMNSLKPEDTAVYYCKRFRTAAQGTDYWGQGTLVTVSSGGGGSGGGGSGGGGSGGGGSGGGGSGGGGSGGGGSEVQLVESGGGPVQAGGSLRLSCAASGRTYRGYSMGWFRQAPGKEREFVAAIVWSGGNTYYEDSVKGRFTISRDNAKNTMYLQMTSLKPEDSATYYCAAKIRPYIFKIAGQYDYWGQGTLVTVSSGAADYKDHDGDYKDHDIDYKDDDDKGAAHHHHHH
Consider B9, for which, in test [4], the “IC50 (M), xCELLigence based cytotoxicity (readout 18 h), MCF-7, E/T 15:1” value was 1.1e-10 M and the “IC50 (M), xCELLigence based cytotoxicity (readout 18 h), SKBR3, E/T 15:1” value was determined as 2.6e-11 M.

B10: T017000036 (bispecific antibody)
chain: EVQLVESGGGPVQAGGSLRLSCAASGRTYRGYSMGWFRQAPGKEREFVAAIVWSGGNTYYEDSVKGRFTISRDNAKNTMYLQMTSLKPEDSATYYCAAKIRPYIFKIAGQYDYWGQGTLVTVSSGGGGSGGGGSGGGGSGGGGSGGGGSGGGGSGGGGSEVQLVESGGGLVQPGGSLRLSCTFSGGTFSSYTMGWFRQAPGKEREFVAEVRWGGVTTYSNSLKDRFSISEDSVKNAVYLQMNSLKPEDTAVYYCAAVRQMYMTVVPDYWGQGTLVTVSSGAADYKDHDGDYKDHDIDYKDDDDKGAAHHHHHH
notes: Bispecific Nanobody construct with tags, expressed in Pichia; also called T0170117G03-35GS-20CD019C07-FLAG3-HIS6; CD3xCD20 (cluster A)
For B10, the concentration giving a half-maximal response (EC50) in test [5] turned out to be 35 nM. Moreover, in test [1], the “% lysis (% dead cells at 500 nM Nanobody minus no Nanobody control), Ramos killing assay, E:T 10:1” value came to 26% and the “Average IC50 (M) … E:T 10:1” value was determined as 5.5e-09 M. The same molecule came in with an EC50 in test [2] of 21 nM. In addition, the “Average IC50 (M) … 44 h” value in test [3] came out at 1.04e-09 M.

B11: T017000053 (bispecific antibody)
chain: EVQLVESGGGLVQPGGSLRLSCTFSGGTFSSYTMGWFRQAPGKEREFVAEVRWGGVTTYSNSLKDRFSISEDSVKNAVYLQMNSLKPEDTAVYYCAAVRQMYMTVVPDYWGQGTLVTVSSGGGGSGGGGSGGGGSGGGGSGGGGSGGGGSGGGGSEVQLVESGGGLVQPGGSLRLSCAASGDIYKSFDMGWYRQAPGKQRDLVAVIGSRGNNRGRTNYADSVKGRFTISRDGTGNTVYLLMNKLRPEDTAIYYCNTAPLVAGRPWGRGTLVTVSSGAADYKDHDGDYKDHDIDYKDDDDKGAAHHHHHH
notes: Bispecific Nanobody construct with tags, expressed in Pichia; also called 20CD019C07-35GS-T0170060E11-FLAG3-HIS6; CD20xCD3 (cluster B)
Turning to B11, in test [1], the “% lysis (% dead cells at 500 nM Nanobody minus no Nanobody control), Ramos killing assay, E:T 10:1” value turned out to be 22% and the “Average IC50 (M) … E:T 10:1” value was found to be 7e-09 M. The molecule also showed an EC50 in test [2] of 1.8 nM. Besides, in test [6], the “EC50 (M) of IFN-γ secretion by human T cells (ELISA, 72 h) in the xCELLigence based CHO-K1 human CD20 killing assay” value was determined as 9.1e-10 M. Moreover, the “Average IC50 (M) … 44 h” value in test [3] worked out at 2.81e-10 M. The “EC50 (M) (title: IC50), T cell dependent B-cell (Ramos) killing assay” value in test [7] was found to be 1.8e-09 M.
